Measured values: PMC7332060, “Characterizing the actin-binding ability of Zasp52 and its contribution to myofibril assembly” (PLoS ONE, 2020)

B1: GST-Zasp52-PK (natural protein)
chain: MAQPQLLQIKLSRFDAQPWGFRLQGGTDFAQPLLVQKVNAGSLSEQAGLQPGDAVVKINDVDVFNLRHKDAQDIVVRSGNNFVITVQRGGSTWRPHVTPTGNVPQPNSPYLQTVTKTSLAHKQQDSQHIGCGYNNAARPFSNGGDGGVKSIVNKQYNTPVGIYSDESIAETLSAQAEVLAGGVLGVNFKKNEKEYQGDRSEVLKFLREEETGQSTPAFGNSHYEHDAPQQLQQPQQQYNQHQQHYHQQQQQQQSSTTRHVSAPVNSPKPPSTGGLPTGQNICTECERLITGVFVRIKDKNLHVECFKCATCGTSLKNQGYYNFNNKLYCDIHAKQAAINNPPTGTEGYVPVPIKPNTKLSASTISSALNSHGYGGHSNGYSNGNSTPAPAPV

Legend:
GST-Zasp52-PK = target: B1; experiment: SPR; surface plasmon resonance imaging (PlexArray HT); GST-Zasp52-PK printed on gold-coated chip; G-actin or α-actinin injected; PBST running buffer; 25°C; kinetic analysis with BIAevaluation 4.1; conditions: both partners purified
[1] = target: G-actin (Cytoskeleton AKL-99) (UniProt P68135 1-377); experiment: as above; conditions: both partners purified

| Kd (GST-Zasp52-PK) | Kd [1] | Binder |
| --- | --- | --- |
| 86.5 nM | – | α-actinin (Cytoskeleton AT-01) (natural protein) MNQIEPGVQYNYVYDEDEYMIQEEEWDRDLLLDPAWEKQQRKTFTAWCNSHLRKAGTQIENIEEDFRNGLKLMLLLEVISGERLPKPDRGKMRFHKIANVNKALDYIASKGVKLVSIGAEEIVDGNVKMTLGMIWTIILRFAIQDISVEETSAKEGLLLWCQRKTAPYRNVNIQNFHTSWKDGLGLCALIHRHRPDLIDYSKLNKDDPIGNINLAMEIAEKHLDIPKMLDAEDIVNTPKPDERAIMTYVSCFYHAFAGAEQAETAANRICKVLAVNQENERLMEEYERLASELLEWIRRTIPWLENRTPEKTMKAMQKKLEDFRDYRRKHKPPKVQEKCQLEINFNTLQTKLRISNRPAFMPSEGKMVSDAGAWQRLEQAEKGYEEWLLNEIRRLERLEHLAEKFRQKASTHETWAYGKEQILLQKDYESASLTEVRALLRKHEAFESDLAAHQDRVEQIAAIAQELNELDYHDAVNVNDRCQKICDQWDRLGTLTQKRREALERTEKLLETIDQLHLEFAKRAAPFNNWMEGAMEDLQDMFIVHSIEEIQSLITAHEQFKATLPEADGERQSIMAIQNEVEKVIQSYNIRISSSNPYSTVTMDELRAKWDKVKQLVPIRDQSLQEELARQHANERLRRQFAAQANAIGPWIQNKMEEIARSSIQITGALEDQMNQLKQYEHNIINYKNNIDKLEGDHQLIQEALVFDNKHTNYTMEHIRVGWELLLTTIARTINEVETQILTRDAKGITQEQMNEFRASFNHFDRRKNGLMDHEDFRACLISMGYDLGEAEFARIMTLVDPNGQGTVTFQSFIDFMTRETADTDTAEQVIASFRILASDKPYILAEELRRELPPDQAQYCIKRMPAYSGPGSVPGALDYTAFSSALYGESDL |
| – | 1100 nM | B1 |
